Reference: patent US20240166754A1 (SYNTHEKINE, published 2024)
Positions count from the first letter of the chain named.

B1: hIL12Rb1_VHH14 (VHH)
VHH: QVQLQESGGGSVQAGGSLRLSCAVSGYDYCGYDVRWYRRAPGKEREFVSGIDSDGSTSYADSVKGRFTISQDNAENTSYLHMFSLKPEDTAMYYCKTESPAGESAWCRNFRGMDYWGKGTQVTVSS
notes: Camel VHH
B2: hIL12Rb1_VHH11 (VHH)
VHH: B1 VHH with R39Q
notes: Camel VHH
B3: hIL12Rb1_VHH19 (VHH)
VHH: B1 VHH with R39Q, D52N, S99G
notes: Camel VHH
B4: hIL12Rb1_VHH15 (VHH)
VHH: B1 VHH with R39Q, D52N
notes: Camel VHH
B5: hIL12Rb1_VHH22 (VHH)
VHH: QVQLQESGGGSVQAGGSLRLSCTASGYTYSSAFMAWFRQAPGKEREGVAAIYTRDGGTVYADSVKGRFTISQDNAKNTLYLQMNSLKAEDTAMYYCAAKIPQPGRASLLDSQTYDYWGQGTQVTVSS
notes: Camel VHH
B6: hIL12Rb1_VHH21 (VHH)
VHH: B5 VHH with I51M, A88T
notes: Camel VHH
B7: hIL12Rb1_VHH12 (VHH)
VHH: B5 VHH with A88P, I100M
notes: Camel VHH
B8: hIL12Rb1_VHH20 (VHH)
VHH: B5 VHH with G57S, T58P, V64L, Y80H, A88P, Q102E, A106I, Q119H
notes: Camel VHH
B9: hIL12Rb1_VHH2 (VHH)
VHH: B5 VHH with T78I
notes: Camel VHH
B10: hIL12Rb1_VHH16 (VHH)
VHH: B5 VHH with I51M, M83I, N84H, S85T
notes: Camel VHH
B11: hIL12Rb1_VHH6 (VHH)
VHH: QVQLQESGGGSVQAGGSLRLSCAASRYTYTNNFMAWFRQAPGKEREGVAAIYTGDGYAYYFYSVKGRFTISQDNDENMLYLQMNSLKPEDTAMYYCAAMERRIGTRRMTENAEYKYWGQGTQVTVSS
notes: Camel VHH
B12: hIL12Rb1_VHH18 (VHH)
VHH: B11 VHH with Y62D, E76K, I103S, T105R
notes: Camel VHH
B13: hIL12Rb1_VHH3 (VHH)
VHH: QVQLQESGGGSVQAGGSLRLSCVASGYSYCGYDMMWYRQAPGKEREFVALITSDYSIRYEDSVEGRFSISRDNAKNTGYLLMSNLTPADTAIYYCKTSTAARESSWCRSRYRVASWGQGTQVTVSS
notes: Camel VHH
B14: hIL12Rb1_VHH8 (VHH)
VHH: B13 VHH
notes: Camel VHH
B15: hIL12Rb1_VHH9 (VHH)
VHH: B13 VHH with S105G
notes: Camel VHH
B16: hIL12Rb1_VHH17 (VHH)
VHH: QVQLQESGGGSVQAGGFLRLSCVASGYGYCGYDMSWYRQVPGKEREFVALITSDRSVSYEDSVKGRFSISRDNAKNTAYLEMNRLTPDDTAIYYCKTSTAARENNWCRSRYRIASWGQGTQVTVSS
notes: Camel VHH
B17: hIL12Rb1_VHH5 (VHH)
VHH: B16 VHH with I92V, S115Y
notes: Camel VHH
B18: hIL12Rb1_VHH13 (VHH)
VHH: B16 VHH with V40A, D54E, S56V, V57I, K75E, A78G, T99A, N104S, N105S, I113V
notes: Camel VHH
B19: hIL12Rb1_VHH4 (VHH)
VHH: QVQLQESGGGSVQAGGSLRLSCVASGYGYCGYDMSWYRQTPGKEREFVALITSDRIASYEDSVKGRFIISRDNAKNTGYLDMTRVTPDDTAIYYCKTSAAARENSWCRSRYRVASWGQGTQVTVSS
notes: Camel VHH

target: T1, extracellular domain of human IL12RB1 (hIL12Rb1 ECD antigen) (human, UniProt P42701 24-545); experiment: periplasmic extract ELISA on antigen-coated plate after phage biopanning
T1 construct: also called IL12Rβ1; CD212
Description: Upon completion of the biopanning of Example 3, three 96-well plates of individual phage clones were isolated in order to perform periplasmic extract ELISA (PE-ELISA) on IL12Rb1 coated plates to identify positive VHH binders that selectively bound IL12Rb1. A 96-well plate was coated with IL12Rb1 and PBS under the same conditions. Next, wells were blocked at 37° ° C. for 1 h. Then, 100 μl of extracted antibodies was added to each well and incubated for 1 h. Subsequently, 100 μl of anti-tag polyclonal antibody conjugated to HRP was added to each well and incubated at 37 °C for 1 h. Plates were developed with TMB substrate. The reaction was stopped by the addition of H2SO4. Absorbance at 450 nm was read on a microtiter plate reader. Antibodies with absorbance of the antigen-coated well at least threefold greater than PBS-coated control are VHHs that specifically bind to IL12Rb1. Positive clones were sequenced, and sequences analyzed to identify unique clonotypes.

Binding result, binds:
B1
B2
B3
B4
B5
B6
B7
B8
B9
B10
B11
B12
B13
B14
B15
B16
B17
B18
B19
